According to patent US20140058068A1 (UNIVERSITY OF MIAMI, published 2014):
Each block holds one molecule with its values, some of them ahead of it. Square brackets hold non-standard residues; d marks the D form. Ends that are not written are not given here. * marks the point of attachment. Desaminotyrosyl = O=C(CCc1ccc(O)cc1)*; NMeY = CN[C@@H](Cc1ccc(O)cc1)C(=O)O; hArg = N=C(N)NCCCC[C@H](N)C(=O)O; Agmatine = N=C(N)NCCCCN*; NMeA = CN[C@@H](C)C(=O)O; Nle = CCCC[C@H](N)C(=O)O; Orn = NCCC[C@H](N)C(=O)O; dAbu = CC[C@@H](N)C(=O)O; Abu = CC[C@H](N)C(=O)O; GABA = NCCCC(=O)O

Columns and labels:
[1] = target: GHRH receptor of human pituitary membrane homogenates (human) (UniProt Q02643); test: radioligand competition, 125I-JV-1-42 (~0.2 nM) as competitor, human pituitary membrane homogenates
[2] = target: T1, GHRH receptor of human pituitary membrane homogenates (human, UniProt Q02643 23-423); test: radioligand competition, [His1,125I-Tyr10,Nle27]hGHRH(1-32)NH2 (0.2 nM) as competitor, human pituitary membrane homogenates
T1 construct: whole, on cells; Native receptor in pituitary membrane homogenates, not intact cells; also called hGH-RH receptor
T1 sequence (looked up): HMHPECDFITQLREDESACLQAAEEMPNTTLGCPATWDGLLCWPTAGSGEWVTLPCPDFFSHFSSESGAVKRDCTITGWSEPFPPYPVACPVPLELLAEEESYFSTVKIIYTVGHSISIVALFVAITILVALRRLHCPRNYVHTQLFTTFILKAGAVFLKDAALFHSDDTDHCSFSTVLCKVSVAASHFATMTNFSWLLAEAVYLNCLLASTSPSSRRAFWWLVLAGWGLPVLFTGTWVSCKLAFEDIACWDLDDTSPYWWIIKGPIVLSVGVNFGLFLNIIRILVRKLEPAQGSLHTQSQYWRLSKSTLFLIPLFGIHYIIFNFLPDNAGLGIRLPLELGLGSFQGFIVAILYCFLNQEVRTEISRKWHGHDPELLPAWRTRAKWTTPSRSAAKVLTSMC
Source text: Normal human pituitaries were purchased from the National Hormone and Peptide Program (A. F. Parlow, Los Angeles, County Harbor—UCLA Medical Center, Torrance, Calif.).

[3] = target: T1, GHRH receptor of human pituitary …; test: radioligand competition, 125I-JV-1-42 (~0.2 nM) as competitor, human pituitary membrane homogenates
Source text: Normal human pituitaries were purchased from the National Hormone and Peptide Program (A. F. Parlow, Los Angeles, County Harbor-UCLA Medical Center, Torrance, Calif.).

Molecule: [N-Me-Tyr^1, D-Ala^2, Orn^12, Abu^15, Orn^21, Nle^27, Asp^28]hGH-RH(1-29)NH-CH3 (from UniProt P01286 32-60) (peptide)
IC50 [1]: 1.06 nM
Relative affinity (Binding potency) vs JI-38 (fold, JI-38 = 1) [1]: 4.1

Molecule: [N-Me-Tyr^1, D-Ala^2, Fpa5^6, Orn^12, Abu^15, Orn^21, Nle^27, Gab^30]hGH-RH(1-30)NH-CH3 (from UniProt P01286 32-61) (peptide)
IC50 [1]: 1.56 nM
Relative affinity (Binding potency) vs JI-38 (fold, JI-38 = 1) [1]: 2.79

Molecule: [Ac-N-Me-Tyr^1, D-Ala^2, Gln^8, Orn^12, Abu^15, Orn^21, Nle^27, Asp^28, Agm^29]hGH-RH(1-29) (from UniProt P01286 32-60) (peptide)
IC50 [1]: 3.44 nM
Relative affinity (Binding potency) vs JI-38 (fold, JI-38 = 1) [1]: 1.26

Molecule: [Dat^1, D-Ala^2, Gln^8, Orn^12, Abu^15, Orn^21, Nle^27, Asp^28, D-Arg^29]hGH-RH(1-29)NH-CH3 (from UniProt P01286 32-60) (peptide)
IC50 [1]: 2.74 nM
Relative affinity (Binding potency) vs JI-38 (fold, JI-38 = 1) [1]: 1.59

Molecule: [Dat^1, D-Ala^2, Gln^8, Orn^12, Abu^15, Orn^21, Nle^27, Asp^28]hGH-RH(1-29)NH-CH3 (from UniProt P01286 32-60) (peptide)
IC50 [1]: 0.55 nM
Relative affinity (Binding potency) vs JI-38 (fold, JI-38 = 1) [1]: 7.91

Molecule: [N-Me-Tyr^1, D-Ala^2, Orn^12, Abu^15, Orn^21, Nle^27, Asp^28, Agm^29]hGH-RH(1-29) (from UniProt P01286 32-60) (peptide)
IC50 [1]: 1.7 nM
Relative affinity (Binding potency) vs JI-38 (fold, JI-38 = 1) [1]: 2.56

Molecule: [N-Me-Tyr^1, D-Ala^2, Orn^12, Abu^15, Orn^21, Nle^27, Asp^28]hGH-RH(1-29)NH-CH2-CH3 (from UniProt P01286 32-60) (peptide)
IC50 [1]: 1.47 nM
Relative affinity (Binding potency) vs JI-38 (fold, JI-38 = 1) [1]: 2.96

B1: [Dat^1, D-Ala^2, Orn^12, Abu^15, Orn^21, Nle^27, Asp^28, Har^30]hGH-RH(1-30)NH2 (peptide)
chain: [Desaminotyrosyl][dA]DAIFTNSYR[Orn]VL[Abu]QLSAR[Orn]LLQDI[Nle]DR[hArg]-NH2
SMILES: CCCC[C@H](NC(=O)[C@@H](NC(=O)[C@H](CC(=O)O)NC(=O)[C@H](CCC(N)=O)NC(=O)[C@H](CC(C)C)NC(=O)[C@H](CC(C)C)NC(=O)[C@H](CCCN)NC(=O)[C@H](CCCNC(=N)N)NC(=O)[C@H](C)NC(=O)[C@H](CO)NC(=O)[C@H](CC(C)C)NC(=O)[C@H](CCC(N)=O)NC(=O)[C@H](CC)NC(=O)[C@H](CC(C)C)NC(=O)[C@@H](NC(=O)[C@H](CCCN)NC(=O)[C@H](CCCNC(=N)N)NC(=O)[C@H](Cc1ccc(O)cc1)NC(=O)[C@H](CO)NC(=O)[C@H](CC(N)=O)NC(=O)[C@@H](NC(=O)[C@H](Cc1ccccc1)NC(=O)[C@@H](NC(=O)[C@H](C)NC(=O)[C@H](CC(=O)O)NC(=O)[C@@H](C)NC(=O)CCc1ccc(O)cc1)[C@@H](C)CC)[C@@H](C)O)C(C)C)[C@@H](C)CC)C(=O)N[C@@H](CC(=O)O)C(=O)N[C@@H](CCCNC(=N)N)C(=O)N[C@@H](CCCCNC(=N)N)C(N)=O
IC50 [2]: 0.14 nM
Relative affinity (Binding potency) vs GHRH [2]: 42.3 fold, GHRH(1-29) = 1
Relative affinity (Binding potency) vs JI-38 [2]: 13.9 fold, JI-38 = 1

B2: [Dat^1, D-Ala^2, N-Me-Ala^8, Orn^12, Abu^15, Orn^21, Nle^27, Asp^28, Agm^29]hGH-RH(1-29) (peptide)
chain: [Desaminotyrosyl][dA]DAIFT[NMeA]SYR[Orn]VL[Abu]QLSAR[Orn]LLQDI[Nle]D[Agmatine]
SMILES: CCCC[C@H](NC(=O)[C@@H](NC(=O)[C@H](CC(=O)O)NC(=O)[C@H](CCC(N)=O)NC(=O)[C@H](CC(C)C)NC(=O)[C@H](CC(C)C)NC(=O)[C@H](CCCN)NC(=O)[C@H](CCCNC(=N)N)NC(=O)[C@H](C)NC(=O)[C@H](CO)NC(=O)[C@H](CC(C)C)NC(=O)[C@H](CCC(N)=O)NC(=O)[C@H](CC)NC(=O)[C@H](CC(C)C)NC(=O)[C@@H](NC(=O)[C@H](CCCN)NC(=O)[C@H](CCCNC(=N)N)NC(=O)[C@H](Cc1ccc(O)cc1)NC(=O)[C@H](CO)NC(=O)[C@H](C)N(C)C(=O)[C@@H](NC(=O)[C@H](Cc1ccccc1)NC(=O)[C@@H](NC(=O)[C@H](C)NC(=O)[C@H](CC(=O)O)NC(=O)[C@@H](C)NC(=O)CCc1ccc(O)cc1)[C@@H](C)CC)[C@@H](C)O)C(C)C)[C@@H](C)CC)C(=O)N[C@@H](CC(=O)O)C(=O)NCCCCNC(=N)N
IC50 [3]: 0.86 nM
Relative affinity (Binding potency) vs JI-38 [3]: 5.06 fold, JI-38 = 1

B3: [N-Me-Tyr^1, Abu^2, Orn^12, Abu^15, Orn^21, Nle^27, Gab^30]hGH-RH(1-30)NH2 (peptide)
peptide: [NMeY][Abu]DAIFTNSYR[Orn]VL[Abu]QLSAR[Orn]LLQDI[Nle]SR[GABA]-NH2
modifications: N-terminus assumed
SMILES: CCCC[C@H](NC(=O)[C@@H](NC(=O)[C@H](CC(=O)O)NC(=O)[C@H](CCC(N)=O)NC(=O)[C@H](CC(C)C)NC(=O)[C@H](CC(C)C)NC(=O)[C@H](CCCN)NC(=O)[C@H](CCCNC(=N)N)NC(=O)[C@H](C)NC(=O)[C@H](CO)NC(=O)[C@H](CC(C)C)NC(=O)[C@H](CCC(N)=O)NC(=O)[C@H](CC)NC(=O)[C@H](CC(C)C)NC(=O)[C@@H](NC(=O)[C@H](CCCN)NC(=O)[C@H](CCCNC(=N)N)NC(=O)[C@H](Cc1ccc(O)cc1)NC(=O)[C@H](CO)NC(=O)[C@H](CC(N)=O)NC(=O)[C@@H](NC(=O)[C@H](Cc1ccccc1)NC(=O)[C@@H](NC(=O)[C@H](C)NC(=O)[C@H](CC(=O)O)NC(=O)[C@H](CC)NC(=O)[C@H](Cc1ccc(O)cc1)NC)[C@@H](C)CC)[C@@H](C)O)C(C)C)[C@@H](C)CC)C(=O)N[C@@H](CO)C(=O)N[C@@H](CCCNC(=N)N)C(=O)NCCCC(N)=O
notes: also called Peptide 25503
IC50 [3]: 1.18 nM
Relative affinity (Binding potency) vs JI-38 [3]: 3.67 fold, JI-38 = 1

B4: [Dat^1, D-Abu^2, Orn^12, Abu^15, Orn^21, Nle^27, Gab^30]hGH-RH(1-30)NH2 (peptide)
chain: [Desaminotyrosyl][dAbu]DAIFTNSYR[Orn]VL[Abu]QLSAR[Orn]LLQDI[Nle]SR[GABA]-NH2
SMILES: CCCC[C@H](NC(=O)[C@@H](NC(=O)[C@H](CC(=O)O)NC(=O)[C@H](CCC(N)=O)NC(=O)[C@H](CC(C)C)NC(=O)[C@H](CC(C)C)NC(=O)[C@H](CCCN)NC(=O)[C@H](CCCNC(=N)N)NC(=O)[C@H](C)NC(=O)[C@H](CO)NC(=O)[C@H](CC(C)C)NC(=O)[C@H](CCC(N)=O)NC(=O)[C@H](CC)NC(=O)[C@H](CC(C)C)NC(=O)[C@@H](NC(=O)[C@H](CCCN)NC(=O)[C@H](CCCNC(=N)N)NC(=O)[C@H](Cc1ccc(O)cc1)NC(=O)[C@H](CO)NC(=O)[C@H](CC(N)=O)NC(=O)[C@@H](NC(=O)[C@H](Cc1ccccc1)NC(=O)[C@@H](NC(=O)[C@H](C)NC(=O)[C@H](CC(=O)O)NC(=O)[C@@H](CC)NC(=O)CCc1ccc(O)cc1)[C@@H](C)CC)[C@@H](C)O)C(C)C)[C@@H](C)CC)C(=O)N[C@@H](CO)C(=O)N[C@@H](CCCNC(=N)N)C(=O)NCCCC(N)=O
IC50 [3]: 1.44 nM
Relative affinity (Binding potency) vs JI-38 [3]: 3.02 fold, JI-38 = 1

The remaining molecules from weak to strong by IC50 [1], led by results:

IC50 [1]: 3.05 nM
Relative affinity (Binding potency) vs JI-38 (fold, JI-38 = 1) [1]: 1.43
Molecule: [N-Me-Tyr^1, D-Ala^2, Fpa5^6, Orn^12, Abu^15, Orn^21, Nle^27, Asp^28, Agm^29]hGH-RH(1-29) (from UniProt P01286 32-60) (peptide)

IC50 [1]: 1.07 nM
Relative affinity (Binding potency) vs JI-38 (fold, JI-38 = 1) [1]: 4.07
Molecule: [N-Me-Tyr^1, D-Ala^2, Orn^12, Abu^15, Orn^21, Nle^27, Gab^30]hGH-RH(1-30)NH2 (from UniProt P01286 32-61) (peptide)

IC50 [1]: 0.87 nM
Relative affinity (Binding potency) vs JI-38 (fold, JI-38 = 1) [1]: 5
Molecule: [N-Me-Tyr^1, D-Ala^2, Fpa5^6, Orn^12, Abu^15, Orn^21, Nle^27, Asp^28]hGH-RH(1-29)NH-CH3 (from UniProt P01286 32-60) (peptide)

IC50 [1]: 0.82 nM
Relative affinity (Binding potency) vs JI-38 (fold, JI-38 = 1) [1]: 5.3
Molecule: [N-Me-Tyr^1, D-Ala^2, Gln^8, Orn^12, Abu^15, Orn^21, Nle^27, Asp^28, Agm^29]hGH-RH(1-29) (from UniProt P01286 32-60) (peptide)

IC50 [1]: 0.71 nM
Relative affinity (Binding potency) vs JI-38 (fold, JI-38 = 1) [1]: 6.12
Molecule: [N-Me-Tyr^1, D-Ala^2, Gln^8, Orn^12, Abu^15, Orn^21, Nle^27, Asp^28, Apa^30]hGH-RH(1-30)NH2 (from UniProt P01286 32-61) (peptide)

IC50 [1]: 0.16 nM
Relative affinity (Binding potency) vs JI-38 (fold, JI-38 = 1) [1]: 27.2
Molecule: [N-Me-Tyr^1, D-Ala^2, Gln^8, Orn^12, Abu^15, Orn^21, Nle^27, Asp^28]hGH-RH(1-29)NH-CH3 (from UniProt P01286 32-60) (peptide)
